Bounds are passed on as bounds.

Common to all, as to experiment: cell-based or functional assay
Experiment [1] deals with human GLP-1 receptor (human) (UniProt P43220).
For experiment [2], the target named is T1, human GIP receptor (human) (UniProt P48546).
T1 sequence (looked up): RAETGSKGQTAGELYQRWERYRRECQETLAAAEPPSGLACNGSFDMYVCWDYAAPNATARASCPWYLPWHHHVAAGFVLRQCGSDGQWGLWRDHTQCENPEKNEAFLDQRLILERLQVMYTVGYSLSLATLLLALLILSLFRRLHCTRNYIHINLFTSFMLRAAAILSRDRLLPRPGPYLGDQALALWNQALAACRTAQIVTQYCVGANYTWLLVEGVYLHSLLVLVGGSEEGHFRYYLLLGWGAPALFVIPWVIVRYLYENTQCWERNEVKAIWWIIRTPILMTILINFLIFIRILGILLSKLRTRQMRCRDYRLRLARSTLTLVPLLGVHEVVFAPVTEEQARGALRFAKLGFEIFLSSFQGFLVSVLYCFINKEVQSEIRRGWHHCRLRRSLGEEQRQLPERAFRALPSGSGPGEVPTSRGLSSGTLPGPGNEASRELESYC

Experiment [3] deals with human glucagon receptor (human) (UniProt P47871).
human glucagon receptor (human), sequence (P47871 26-477): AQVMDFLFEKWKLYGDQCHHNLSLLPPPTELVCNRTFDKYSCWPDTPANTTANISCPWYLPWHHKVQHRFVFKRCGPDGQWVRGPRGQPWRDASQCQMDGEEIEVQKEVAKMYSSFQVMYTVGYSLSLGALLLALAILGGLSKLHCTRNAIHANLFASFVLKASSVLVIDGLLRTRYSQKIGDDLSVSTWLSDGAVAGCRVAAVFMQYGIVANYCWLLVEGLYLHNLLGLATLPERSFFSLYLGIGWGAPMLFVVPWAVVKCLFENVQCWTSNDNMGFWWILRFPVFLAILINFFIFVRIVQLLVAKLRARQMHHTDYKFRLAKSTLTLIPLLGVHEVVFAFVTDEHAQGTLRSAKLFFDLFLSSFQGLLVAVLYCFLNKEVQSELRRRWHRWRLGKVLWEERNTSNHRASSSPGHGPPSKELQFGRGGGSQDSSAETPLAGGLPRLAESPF
Experiment [4] addresses T2, mouse GIP receptor (mouse) (UniProt Q0P543).
T2 sequence (looked up): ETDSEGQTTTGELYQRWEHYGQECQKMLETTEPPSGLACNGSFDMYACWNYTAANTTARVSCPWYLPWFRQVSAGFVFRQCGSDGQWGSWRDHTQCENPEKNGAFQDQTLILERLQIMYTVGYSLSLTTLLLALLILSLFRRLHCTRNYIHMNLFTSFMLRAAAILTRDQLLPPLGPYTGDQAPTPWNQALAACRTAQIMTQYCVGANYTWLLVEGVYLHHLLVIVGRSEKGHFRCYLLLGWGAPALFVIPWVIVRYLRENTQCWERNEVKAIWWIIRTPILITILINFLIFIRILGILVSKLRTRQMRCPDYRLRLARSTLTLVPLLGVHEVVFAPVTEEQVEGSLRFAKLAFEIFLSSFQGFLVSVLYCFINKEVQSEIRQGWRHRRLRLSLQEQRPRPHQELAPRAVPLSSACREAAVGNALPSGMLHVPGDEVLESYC

human GLP-1 receptor (human), sequence (P43220 24-463): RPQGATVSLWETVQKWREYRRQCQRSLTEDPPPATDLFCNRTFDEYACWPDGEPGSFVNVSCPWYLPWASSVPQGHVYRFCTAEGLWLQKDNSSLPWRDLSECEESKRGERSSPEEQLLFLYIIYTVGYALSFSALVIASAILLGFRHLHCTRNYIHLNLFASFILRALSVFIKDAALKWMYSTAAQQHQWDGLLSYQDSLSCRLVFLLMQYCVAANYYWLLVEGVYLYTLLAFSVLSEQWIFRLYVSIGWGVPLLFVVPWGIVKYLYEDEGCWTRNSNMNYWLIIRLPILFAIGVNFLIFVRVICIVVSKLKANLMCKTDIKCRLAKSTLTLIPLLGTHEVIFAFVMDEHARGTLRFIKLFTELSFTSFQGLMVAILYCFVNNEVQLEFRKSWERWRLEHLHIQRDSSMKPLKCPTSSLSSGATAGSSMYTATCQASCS

B1: IP187 (Fc fusion)
chain: HGEGTFTSDVSSYLEGQAAKEFIAWLVKGAPPGGGGGSGGGGSGGGGSGGGGSATHTCPPCPAPEF
Turning to B1, the results for the cAMP EC50, Batch 1 in experiment [1] and in experiment [2] were 0.037 nM and 540 nM, respectively.

B2: IP196 (Fc fusion)
chain: HGEGTFTSDVSSYLEGQAAKEFIAWLVKGAAAGGSGSTASSGSGSATGGGGAPEF
B2: the cAMP EC50, Batch 1 in experiment [1] stood at 0.073 nM.

B3: IP404 (Fc fusion)
chain: YSEGTFTSLYRIHKERQAIDEFIAKLLKGGGSGGGGSGGGGSGGGGSGGGGSGGGGSGGGGSGGGGSACPPC
B3: the cAMP EC50 in experiment [1] is more than 17.2 nM; in experiment [3], more than 17.2 nM; in experiment [4], 0.05 nM.

B4: IP408 (Fc fusion)
chain: YSEGTHTSDLRILLERQAIDEFIAKLLKGGGSGGGGSGGGGSGGGGSGGGGSGGGGSGGGGSGGGGSACPPC
With B4, the cAMP EC50 is more than 166 nM in experiment [1], more than 166 nM in experiment [3] and 0.38 nM in experiment [4].

B5: IP422 (Fc fusion)
chain: YSEGTHTSDLRILLERQAIDEFIAFLLKGGGSGGGGSGGGGSGGGGSGGGGSGGGGSGGGGSGGGGSACPPC
B5: the cAMP EC50 in experiment [1] was more than 59 nM; in experiment [3], more than 59 nM; in experiment [4], 0.012 nM. Also, in experiment [2], the cAMP EC50, hGIPr (C3) line was found to be 1.8 nM.

B6: IP207 (Fc fusion)
chain: YAEGTFISDYSIAMDKIHQQDFVNWLLAQKGKKNDWKHNITQAAAGGSGSTASSGSGSATGGGGAATHTCPPCPAPELL
Turning to B6, the cAMP EC50 was determined as 4100 nM in experiment [1], 0.0078 nM in experiment [2] and 900 nM in experiment [3]. In experiment [2], this molecule registered a cAMP EC50, Batch 1 of 0.0085 nM.

B7: IP146 (Fc fusion)
chain: HGEGTFTSDVSSYLEGQAAKEFIAWLVKGAAAGGSGSTASSGSGSATGGGGAACPPCPAPEF
For the molecule B7, the values for the cAMP EC50, Batch 1 in experiment [1], in experiment [2] and in experiment [3] were 0.049 nM, 83 nM and 650 nM, respectively.

B8: IP194 (Fc fusion)
chain: HGEGTFTSDVSSYLEGQAAKEFIAWLVKGAAAGGSGSTASSGSGSATGGGGPPCPPCPAPEF
For B8, the cAMP EC50, Batch 1 in experiment [1] worked out at 0.061 nM.

B9: IP197 (Fc fusion)
chain: YSEGTFTSDVSSYMERQAIDEFIAWLLAGAAAGGSGSTASSGSGSATGGGGAATHTCPPCPAPEF
Consider B9, for which the cAMP EC50 in experiment [1] came to 0.78 nM; in experiment [2] it was 0.18 nM.

B10: IP233 (Fc fusion)
chain: HGEGTFTSDVSSYLEEQAAKEFIAWLVKGAAAGGSGSTASSGSGSATGGGGAATHTCPPCPAPEF
As for B10, the cAMP EC50, Batch 1 in experiment [1] turned out to be 0.036 nM.

B11: IP199 (Fc fusion)
chain: HGEGTFTSDVSSYLEGQAAKEFIAWLLAGAAAGGSGSTASSGSGSATGGGGAATHTCPPCPAPEF
For B11, the cAMP EC50 in experiment [1] worked out at 0.069 nM.

B12: IP173 (Fc fusion)
chain: YSEGTFTSDVSSYLEEQAAKEFIAWLLAGAAAGGSGSTASSGSGSATGGGGAATHTCPPCPAPEF
B12: the cAMP EC50 in experiment [1] was found to be 0.23 nM; in experiment [2], 1.2 nM.

B13: IP208 (Fc fusion)
chain: YSEGTFTSDVSSYLEGQAAKEFIAWLLAGAAAGGSGSTASSGSGSATGGGGAATHTCPPCPAPEF
In the case of B13, the cAMP EC50 in experiment [1] came to 1.6 nM; in experiment [2], 17 nM.

B14: IP171 (Fc fusion)
chain: YSEGTFTSDVSSYMERQAISEFIAWLLAGAAAGGSGSTASSGSGSATGGGGAATHTCPPCPAPEF
On to B14, for which the cAMP EC50 in experiment [1] was 0.53 nM; in experiment [2], 0.39 nM.

B15: IP204 (Fc fusion)
chain: HGEGTFISDYSIAMDKIHQQDFVNWLLAQKAAAGGSGSTASSGSGSATGGGGAATHTCPPCPAPEF
For the molecule B15, the cAMP EC50 turned out to be 850 nM in experiment [1] and 0.12 nM in experiment [2].

B16: IP224 (Fc fusion)
chain: YSEGTFTSDVSSYMERQAIDEFIAWLLGGGAAAGGSGSTASSGSGSATGGGGAATHTCPPCPAPEF
Regarding B16, the cAMP EC50 was 0.57 nM in experiment [1] and 0.35 nM in experiment [2].

B17: IP203 (Fc fusion)
chain: HGEGTFTSDVSSYLEGQAAKEFIAWLVKGGAAAGGSGSTASSGSGSATGGGGAATHTCPPCPAPEF
With B17, the cAMP EC50, Batch 1 in experiment [1] was 0.042 nM; in experiment [2], 110 nM; in experiment [3], more than 650 nM.

B18: IP176 (Fc fusion)
chain: YSEGTFTSDVSSYMERQAISEFIAWLLKGPAAAGGSGSTASSGSGSATGGGGAATHTCPPCPAPEF
Regarding B18, the cAMP EC50 came out at 0.6 nM in experiment [1] and 0.42 nM in experiment [2].

B19: IP150 (Fc fusion)
chain: YSEGTFTSDVSSYLEGQAAKEFIAWLVAGGAPPGGSGSTASSGSGSATGGGGAATHTCPPCPAPEF
As for B19, the cAMP EC50 was 0.033 nM in experiment [1] and 16 nM in experiment [2].

B20: IP132 (Fc fusion)
chain: HGEGTFTSDVSSYLEGQAAKEFIAWLVKGGGGGGSGGGGSGGGGSGGGGSATHTCPPCPAPEF
Turning to B20, the values for the cAMP EC50, Batch 2 in experiment [1] and in experiment [2] were 0.04 nM and 81 nM, respectively.

B21: IP191 (Fc fusion)
chain: HGEGTFTSDVSSYLEGQAAKEFIAWLVKGAAAGGSGSTASSGSGSATGGGGAATYTCPPCPAPEF
As for B21, the cAMP EC50, Batch 1 in experiment [1] was determined as 0.057 nM.

B22: IP192 (Fc fusion)
chain: HGEGTFTSDVSSYLEGQAAKEFIAWLVKGAAAGGSGSTASSGSGSATGGGGAATSTCPPCPAPEF
In turn, B22 registered a cAMP EC50, Batch 1 in experiment [1] of 0.043 nM.

B23: IP174 (Fc fusion)
chain: HGEGTFTSDVSSYLEEEAAKEFIAWLVAGGAAAGGSGSTASSGSGSATGGGGAATHTCPPCPAPEF
In the case of B23, the cAMP EC50 stood at 0.032 nM in experiment [1] and 460 nM in experiment [2].

B24: IP238 (Fc fusion)
chain: HGEGTFTSDVSSYLEGQAAKEFIAWLVKGGGGGGSGGGGSGGGGSAESKYGPPCPPC
For the molecule B24, the cAMP EC50, Batch 1 in experiment [1] was 0.058 nM; in experiment [2] it was 310 nM.

B25: IP231 (Fc fusion)
chain: HGEGTFTSDVSSYLEEQAAKEFIAWLVKGGGGGGSGGGGSGGGGSGGGGSATHTCPPC
Take B25: the cAMP EC50, Batch 1 in experiment [1] turned out to be 0.067 nM.

B26: IP193 (Fc fusion)
chain: HGEGTFTSDVSSYLEGQAAKEFIAWLVKGAAAGGSGSTASSGSGSATGGGGCPPCPAPEF
As to B26, the cAMP EC50, Batch 1 amounted to 0.064 nM in experiment [1], 450 nM in experiment [2] and 780 nM in experiment [3].

Turning to GGGGGSGGGGSGGGGSGGGGSATHTCPPC (Fc fusion, not shown: a dimerising Fc or GST) [IP288], the cAMP EC50 in experiment [2] amounted to 2300 nM.

B27: IP195 (Fc fusion)
chain: HGEGTFTSDVSSYLEGQAAKEFIAWLVKGAAAGGSGSTASSGSGSATGGGGESKYGPPCPPCPAPEF
Regarding B27, the cAMP EC50, Batch 1 in experiment [1] was 0.061 nM.

B28: IP188 (Fc fusion)
chain: YSEGTFISDYSIAMDKIHQQDFVNWLLAQKAPPGGGGGSGGGGSGGGGSGGGGSATHTCPPCPAPEF
For B28, the cAMP EC50, Batch 1 was 500 nM in experiment [1], 0.0038 nM in experiment [2] and 350 nM in experiment [3].

B29: IP407 (Fc fusion)
chain: YSEGTFTSDYSKLLEEEAIRLFIEWLLAGGGGGGSGGGGSGGGGSGGGGSATHTCPPC
As to B29, the cAMP EC50 was 0.25 nM in experiment [1], more than 163 nM in experiment [3] and 2.3 nM in experiment [4].

B30: IP420 (Fc fusion)
chain: YSEGTFTSDYSKLLEEEATRLFIEWLLAGGGGGGSGGGGSGGGGSGGGGSATHTCPPC
Regarding B30, the values for the cAMP EC50 in experiment [1], in experiment [3] and in experiment [4] were 0.082 nM, 21 nM and 2.6 nM, respectively.

The record behind these values is patent publication US20160185837A1, “GIP AND GLP-1 RECEPTOR DUAL-AGONISTS FOR THE TREATMENT OF DIABETES” (Medimmune Limited, priority 2013, published 2016).
